Data published in FireProtDB (doi:10.1021/bi982427c).

Settings: Bos taurus; pH 5.3; 5 °C; GdnHCl; Fluorescence; Sodium acetate 0.02 M; reversible: yes; whole UniProt chain shown

B1: Acyl-CoA-binding protein wild type, P07107 (protein)
chain: MSQAEFDKAAEEVKHLKTKPADEEMLFIYSHYKQATVGDINTERPGMLDFKGKAKWDAWNELKGTSKEDAMKAYIDKVEELKKKYGI
unfolding free energy: 7.89 kcal/mol
